# Publication PMC9373814, “3p-C-NETA: A versatile and effective chelator for development of Al^18F-labeled and therapeutic radiopharmaceuticals” (Theranostics, 2022)
# What was measured:
# [1] = system: T1, SSTR2; test: in vivo; conditions: female, Wistar, rat, iv, total radioactivity
# T1 construct: from tissue; host or cells: female Wistar rats in vivo (adrenals, pituitary, pancreas)
# Protocol: Dynamic PET scans were performed on a small animal PET/MR scanner based on previously reported protocol. Briefly, female Wistar rats (208-231 g) were anaesthetized with a 5% isoflurane/ oxygen mixture before being maintained at 1-2% isoflurane/1 L/minute throughout the experiment. Rats tail veins were cannulated before being placed in the imaging cell (Bruker Biospin) which was then placed into the scanner; temperature and respiration were monitored throughout the scanning via a physiological monitoring system (SA Instruments, Stony Brook, NY, USA). Rats were injected with [^18F]AlF-3p-C-NETA-TATE (5.5-18.5 MBq, apparent molar activity 22 ± 8 GBq/μmol) at the start of the PET acquisition in presence or absence of octreotide acetate (2.5 mg/kg co-injection with radiopharmaceutical; blocking scans were performed the following day in the same animals). 75 min scans were carried out with the pituitary to kidneys in the PET FOV, during which respiration-gated 3D spin-echo MRI (TurboRARE sequence, TR = 500 mseconds (ms), TE = 18.8 ms, RARE factor = 8, FOV 14x6x6 cm, isotropic resolution of 0.5 mm) images were acquired with a quadrature radio-frequency resonator (transmit/receive, 86 mm internal diameter, Bruker Biospin). PET and MRI scans were then repeated at 100-120 minutes with the animal in the same position. Dynamic PET data were divided into timeframes (4×15 s, 1×240 s, 7×600 s) with corrections for decay, randoms, scatter and deadtime and then reconstructed using an MLEM algorithm with 24 iterations and an isotropic voxel size of 0.5 mm. PET images were normalized to injected activity and animal weight to give standardized uptake values (SUV), and selected organs were outlined to create volumes of interest after coregistration with MR images of which SUVmean values are reported; a circular VOI was placed over the splenic division of the pancreas (as visualised via tracer uptake and mapped to the blocked scan) to determine pancreatic uptake. All image analysis was carried out using the PFUSIT module of PMOD (v 4.004, PMOD Technologies Ltd., Zurich, Switzerland). Quantitative data are expressed as mean ± standard error of the mean (SEM).
# [2] = molecular target: T2, SSTR2 (Rattus norvegicus, UniProt P30680); parameters: method as in PMID 31997090; conditions: naïve rats, 2 h p.i.; cited from earlier work
# T2 construct: from tissue; host or cells: female Wistar rats in vivo (adrenals, pituitary, pancreas)
# T2 sequence (P30680 whole entry): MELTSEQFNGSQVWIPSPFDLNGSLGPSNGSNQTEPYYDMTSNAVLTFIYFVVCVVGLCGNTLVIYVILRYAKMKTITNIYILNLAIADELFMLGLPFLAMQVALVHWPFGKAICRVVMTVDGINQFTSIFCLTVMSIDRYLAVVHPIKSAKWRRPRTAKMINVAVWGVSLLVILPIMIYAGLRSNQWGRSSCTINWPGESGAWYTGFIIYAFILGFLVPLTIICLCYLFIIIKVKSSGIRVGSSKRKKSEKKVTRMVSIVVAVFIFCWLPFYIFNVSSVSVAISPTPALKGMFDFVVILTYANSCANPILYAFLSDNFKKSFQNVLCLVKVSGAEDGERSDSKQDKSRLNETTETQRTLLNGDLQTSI
Molecule,"SUV at 1.25 h ([1]; 2.5 mg/kg, SUV adrenals) [SUV]","SUV at 2 h ([1]; 2.5 mg/kg, SUV adrenals) [SUV]","SUV at 1.25 h ([1]; 2.5 mg/kg, SUV pancreas) [SUV]","SUV at 2 h ([1]; 2.5 mg/kg, SUV pancreas) [SUV]","SUV at 1.25 h ([1]; 2.5 mg/kg, SUV pituitary) [SUV]","SUV at 2 h ([1]; 2.5 mg/kg, SUV pituitary) [SUV]",SUV at 1.25 h ([1]; SUV adrenals) [SUV],SUV at 2 h ([1]; SUV adrenals) [SUV],SUV at 2 h ([1]; SUV blood and non-SSTR2 expressing organs) [SUV],SUV at 2 h ([1]; SUV bone uptake in the spine) [SUV],SUV at 1.25 h ([1]; SUV pancreas) [SUV],SUV at 2 h ([1]; SUV pancreas) [SUV],SUV at 1.25 h ([1]; SUV pituitary) [SUV],SUV at 2 h ([1]; SUV pituitary) [SUV],SUV bone uptake in the spine [2]
C[C@@H](O)[C@H](NC(=O)[C@@H]1CSSC[C@H](NC(=O)[C@@H](Cc2ccccc2)NC(=O)CCC(=O)Nc2ccc(CCCC(CN3CCN(CC(=O)O)CCN(CC(=O)O)CC3)N(CC(=O)O)CC(=O)O)cc2)C(=O)N[C@@H](Cc2ccc(O)cc2)C(=O)N[C@H](Cc2c[nH]c3ccccc23)C(=O)N[C@@H](CCCCN)C(=O)N[C@@H]([C@@H](C)O)C(=O)N1)C(=O)O (stereo partly drawn) [[^18F]AlF-3p-C-NETA-TATE],0.24 ± 0.03,0.18 ± 0.04,0.34 ± 0.2,0.31 ± 0.07,0.2 ± 0.04,0.21 ± 0.06,1.2 ± 0.59,1.22 ± 0.65,< 0.6,0.43 ± 0.25,7.78 ± 4.26,8.35 ± 5.07,0.93 ± 0.34,0.93 ± 0.36,–
[^18F]AlF-NOTA-Octreotide,–,–,–,–,–,–,–,–,–,–,–,–,–,–,0.45 ± 0.03
